Laboratory results taken from article PMC3376133, “Glutamine versus Ammonia Utilization in the NAD Synthetase Family” (PLoS ONE, 2012).

T1: tt_NADS S-subunit (Thermus thermophilus, UniProt Q72HE9)
T1 construct: gene TT_C1538; S-subunit expressed alone in E. coli BL21/DE3, N-terminal His6-tag
T1 sequence (Q72HE9 1-281): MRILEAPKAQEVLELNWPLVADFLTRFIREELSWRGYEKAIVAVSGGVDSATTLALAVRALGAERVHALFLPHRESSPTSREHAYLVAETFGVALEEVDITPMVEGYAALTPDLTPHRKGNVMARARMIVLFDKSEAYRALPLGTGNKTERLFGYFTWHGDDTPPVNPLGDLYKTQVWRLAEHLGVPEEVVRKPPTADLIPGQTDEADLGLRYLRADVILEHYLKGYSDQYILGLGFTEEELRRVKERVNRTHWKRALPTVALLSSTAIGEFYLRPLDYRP

B1: mj_NADS (Methanocaldococcus jannaschii DSM 2661) (protein)
chain: MLWGESMEEIVNKITKFIREKVEEANANGVVVGLSGGIDSSVTAYLCVKALGKDKVLGLIMPEKNTNPKDVEHAKMVAENLGIKYIISDITDILKAFGAGGYVPTREFDKIADGNLKARIRMCILYYFANKYNLLVAGTSNKSEIYVGYGTKHGDIACDIRPIGNLFKTEVKKLAKYIGVPKEIIEKPPSAGLWEGQTDEEELDIKYETLDTILKLYEKGKTPEEIHKETNIPLETINYVFDLIKKNEHKRTLPPTPEI
notes: full-length single-domain NADS, N-terminal His6-tag, pET-derived vector, E. coli BL21/DE3

Columns and labels:
[1] = target: T1, tt_NADS S-subunit; assay: coupled alcohol dehydrogenase assay, NADH at […] nm; assay type: biochemical; details: ammonia as amide donor, ATP; constants possibly in Figure 3C
[2] = substrate: Nc1ncnc2c1ncn2[C@@H]1O[C@H](COP(=O)(O)OP(=O)([O-])OC[C@H]2O[C@@H]([n+]3cccc(C(=O)O)c3)[C@H](O)[C@@H]2O)[C@@H](O)[C@H]1O; assay: steady-state kinetics of NAD synthetase activity; assay type: biochemical, Methanocaldococcus jannaschii; details: ammonia 4 mM, saturating ATP (2 mM), 10 mM MgCl2, pH 7.5

Row | Molecule | coupled alcohol dehydrogenase assay, NADH at 340 nm [1] | Km [2] [µM] | kcat [2] [s⁻¹]
1 | Nc1ncnc2c1ncn2[C@@H]1O[C@H](COP(=O)(O)OP(=O)([O-])OC[C@H]2O[C@@H]([n+]3cccc(C(=O)O)c3)[C@H](O)[C@@H]2O)[C@@H](O)[C@H]1O [NaAD] | the S-subunit alone ... had a comparable NADS activity only with ammonia |  | 
2 | B1 |  | 130 ± 20 | 0.20 ± 0.01
